In patent US11008402 (dated 2021) one finds EC50 data, which are given here for 13 molecules.

For one test, the target named is CD3 (Jurkat cells) (human, UniProt P07766). Nature of the test: FACS, Jurkat. Background: In flow cytometry, cells or beads pass a laser one at a time.
Test [1] concerns the target HER3-His ECD (human). Nature of the test: ELISA.
Test [2] addresses HER3 (cell surface) (human). Nature of the test: FACS, MCF-7.
For test [3], the target named is HER3-His ECD (human). The experiment in a line: ELISA. This is another data set of the same source. Background: In an ELISA, binding on a coated surface is turned into a signal by an enzyme label.
Test [4] has as its target HER3 (cell surface) (human). Nature of the test: FACS, SKBR-3 (EGFR and HER3 positive).
The target in test [5] is HER3 (cell surface) (human). Nature of the test: FACS, MCF-7. The source holds these as a separate data set.
Test [6] addresses HER3-Fc ECD (human). The experiment in a line: ELISA.
Test [7] has as its target HER3 (cell surface) (human). The experiment in a line: FACS, MCF-7 (Example 22).
In test [8] the target is HER3-His ECD (human). The experiment in a line: ELISA. The source holds these as a separate data set.
The target in test [9] is HER3 (cell surface) (human). Nature of the test: FACS, A375.
Test [10] addresses HER3-Fc ECD (human). Nature of the test: ELISA. The source holds these as a separate data set.
The target in a further test is EGFR ECD (human, UniProt P00533). Nature of the test: ELISA.
The next test deals with EGFR (cell surface) (human, UniProt P00533). The experiment in a line: FACS, FaDu (EGFR and HER3 positive).

“And” between values parts separate entries of the source, which are not always exact repeats. Equal entries are not always repeated. Where two headings read alike, the source gives them in different places.

For orientation: EC50 means the concentration at which the effect is half-maximal. Low readings indicate greater potency, high ones weaker potency.

CD3 (Jurkat cells), sequence (P07766 23-207): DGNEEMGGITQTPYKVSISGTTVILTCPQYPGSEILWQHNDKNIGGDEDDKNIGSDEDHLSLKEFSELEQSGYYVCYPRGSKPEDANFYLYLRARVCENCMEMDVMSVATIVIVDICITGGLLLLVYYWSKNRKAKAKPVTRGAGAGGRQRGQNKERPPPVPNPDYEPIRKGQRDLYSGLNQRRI

B1: scDb 3-43xCD3, CD3 arm (antibody)
chain: METDTLLLWVLLLWVPGSTGQVQLQQSGPGLVKPSQTLSLTCAISGDSVSSNRAAWNWIRQSPSRGLEWLGRTYYRSKWYNDYAQSLKSRITINPDTPKNQFSLQLNSVTPEDTAVYYCARDGQLGLDALDIWGQGTMVTVSSGGGGSDIQMTQSPSSLSASVGDRVTITCRASQDIRNYLNWYQQKPGKAPKLLIYYTSRLHSGVPSRFSGSGSGTDFTFTISSLQPEDIATYYCQQGNTLPWTFGQGTKLEIKRGGGGSGGGGSGGGGSQVQLVQSGAEVKKPGSSVKVSCKASGGTFSGYTMNWVRQAPGQGLEWMGLINPYKGVSTYNGKFKDRVTITADKSTSTAYMELSSLRSEDTAVYYCARSGYYGDSDWYFDVWGQGTLVTVSSGGGGSQAGLTQPPAVSVAPGQTASITCGRDNIGSRSVHWYQQKPGQAPVLVVYDDSDRPAGIPERFSGSNYENTATLTISRVEAGDEADYYCQVWGITSDHVVFGGGTKLTVLAAAHHHHHH
In the case of B1, the EC50 with CD3 (Jurkat cells) was 2.4 nM and 3.1 nM.

B2: scFv3-43-scDb3-43xhuU3-scFv3-43, CD3 arm (antibody)
chain: METDTLLLWVLLLWVPGSTGQVQLQQSGPGLVKPSQTLSLTCAISGDSVSSNRAAWNWIRQSPSRGLEWLGRTYYRSKWYNDYAQSLKSRITINPDTPKNQFSLQLNSVTPEDTAVYYCARDGQLGLDALDIWGQGTMVTVSSGGGGSDIQMTQSPSSLSASVGDRVTITCRASQDIRNYLNWYQQKPGKAPKLLIYYTSRLHSGVPSRFSGSGSGTDFTFTISSLQPEDIATYYCQQGNTLPWTFGQGTKLEIKRGGGGSGGGGSGGGGSQVQLVQSGAEVKKPGSSVKVSCKASGGTFSGYTMNWVRQAPGQGLEWMGLINPYKGVSTYNGKFKDRVTITADKSTSTAYMELSSLRSEDTAVYYCARSGYYGDSDWYFDVWGQGTLVTVSSGGGGSQAGLTQPPAVSVAPGQTASITCGRDNIGSRSVHWYQQKPGQAPVLVVYDDSDRPAGIPERFSGSNYENTATLTISRVEAGDEADYYCQVWGITSDHVVFGGGTKLTVLAAAGGSGGGGSGGGTQVQLQQSGPGLVKPSQTLSLTCAISGDSVSSNRAAWNWIRQSPSRGLEWLGRTYYRSKWYNDYAQSLKSRITINPDTPKNQFSLQLNSVTPEDTAVYYCARDGQLGLDALDIWGQGTMVTVSSGGGGSGGGGSGGGGSQAGLTQPPAVSVAPGQTASITCGRDNIGSRSVHWYQQKPGQAPVLVVYDDSDRPAGIPERFSGSNYENTATLTISRVEAGDEADYYCQVWGITSDHVVFGGGTKLTVLGSL
Turning to B2, the EC50 with CD3 (Jurkat cells) is 5.2 nM.

B3: scDb 4D5x3-43-Fc, HER3 arm (antibody, V domains shown)
VH: QVQLQQSGPGLVKPSQTLSLTCAISGDSVSSNRAAWNWIRQSPSRGLEWLGRTYYRSKWYNDYAQSLKSRITINPDTPKNQFSLQLNSVTPEDTAVYYCARDGQLGLDALDIWGQGTMVTVSS
VL: QAGLTQPPAVSVAPGQTASITCGRDNIGSRSVHWYQQKPGQAPVLVVYDDSDRPAGIPERFSGSNYENTATLTISRVEAGDEADYYCQVWGITSDHVVFGGGTKLTVLG
B3: in the test with HER3-His ECD [1], the EC50 was determined as 1.9 nM.

B4: Db3-43xhu225-Ig, HER3 arm (antibody, V domains shown)
VH: B3 VH
VL: B3 VL
As for B4, the values for the EC50 with HER3 (cell surface) [2], in the test with HER3-His ECD [3] and with HER3 (cell surface) [4] were 0.054 nM, 0.26 nM and 0.047 nM, respectively.

B5: scDb 3-43xCD3, HER3 arm (antibody, V domains shown)
VH: B3 VH
VL: B3 VL
For the molecule B5, the EC50 with HER3 (cell surface) [5] is 1.1 nM; with HER3-Fc ECD [6] it was 3.3 nM and 4.87 nM; in the test with HER3 (cell surface) [7], 1.1 nM.

B6: scDb4D5x3-43-LL, HER3 arm (antibody, V domains shown)
VH: B3 VH
VL: B3 VL
In the test with HER3-Fc ECD [6], B6 yielded an EC50 of 0.93 nM.

B7: scDbhu225x3-43-Fc (GGGGS), HER3 arm (antibody, V domains shown)
VH: B3 VH
VL: B3 VL
For B7, a half-maximal response in the test with HER3-His ECD [1] (EC50) required 0.2 nM.

B8: scDb 3-43xCD3-scFv 3-43, HER3 arms (antibody, V domains shown)
VH: B3 VH
VL: B3 VL
On to B8, for which the concentration giving a half-maximal response (EC50) is 0.0316 nM and 0.0314 nM with HER3 (cell surface) [5]; 0.81 nM with HER3-Fc ECD [6].

B9: scDb 2-35x3-43-Fc, HER3 arm (antibody, V domains shown)
VH: B3 VH
VL: B3 VL
In the test with HER3-His ECD [1], B9 registered an EC50 of 0.24 nM.

B10: scDb hu225x3-43-Fc, HER3 arm (antibody, V domains shown)
VH: B3 VH
VL: B3 VL
The molecule B10 showed an EC50 with HER3-His ECD [8] of 0.24 nM.

B11: scFv3-43-scDb3-43xhuU3-scFv3-43, HER3 arms (antibody, V domains shown)
VH: B3 VH
VL: B3 VL
In the case of B11, the EC50 with HER3 (cell surface) [5] was found to be 0.0173 nM.

B12: scFv3-43-Fc-scTRAIL, HER3 arm (antibody)
chain: QVQLQQSGPGLVKPSQTLSLTCAISGDSVSSNRAAWNWIRQSPSRGLEWLGRTYYRSKWYNDYAQSLKSRITINPDTPKNQFSLQLNSVTPEDTAVYYCARDGQLGLDALDIWGQGTMVTVSSGGGGSGGGGSGGGGSQAGLTQPPAVSVAPGQTASITCGRDNIGSRSVHWYQQKPGQAPVLVVYDDSDRPAGIPERFSGSNYENTATLTISRVEAGDEADYYCQVWGITSDHVVFGGGTKLTVLG
Take B12: the 50% effective concentration (EC50) came to 1.19 nM with HER3 (cell surface) [9] and 0.33 nM in the test with HER3-Fc ECD [10].

B13: Db3-43xhu225-Ig, EGFR arm (antibody)
chain 1: EVQLVESGGGLVQPGGSLRLSCAASGFSLTNYGVHWVRQAPGKGLEWLGVIWSGGNTDYNTPFTSRFTISRDNSKNTLYLQMNSLRAEDTAVYYCARALTYYDYEFAYWGQGTTVTVSSGGGGSQAGLTQPPAVSVAPGQTASITCGRDNIGSRSVHWYQQKPGQAPVLVVYDDSDRPAGIPERFSGSNYENTATLTISRVEAGDEADYYCQVWGITSDHVVFGGGTKLTVLASTKGPSVFPLAPSSKSTSGGTAALGCLVKDYFPEPVTVSWNSGALTSGVHTFPAVLQSSGLYSLSSVVTVPSSSLGTQTYICNVNHKPSNTKVDKKVEPKSCDKTHTCPPCPAPPVAGPSVFLFPPKPKDTLMISRTPEVTCVVVDVSHEDPEVKFNWYVDGVEVHNAKTKPREEQYNSTYRVVSVLTVLHQDWLNGKEYKCKVSNKGLPSSIEKTISKAKGQPREPQVYTLPPSRDELTKNQVSLTCLVKGFYPSDIAVEWESNGQPENNYKTTPPVLDSDGSFFLYSKLTVDKSRWQQGNVFSCSVMHEALHNHYTQKSLSLSPGK
chain 2: QVQLQQSGPGLVKPSQTLSLTCAISGDSVSSNRAAWNWIRQSPSRGLEWLGRTYYRSKWYNDYAQSLKSRITINPDTPKNQFSLQLNSVTPEDTAVYYCARDGQLGLDALDIWGQGTMVTVSSGGGGSDIQLTQSPSFLSASVGDRVTITCRASQSIGTNIHWYQQKPGKAPKLLIKYASESISGVPSRFSGSGSGTEFTLTISSLQPEDFATYYCQQNNNWPTTFGAGTKLEIKRTVAAPSVFIFPPSDEQLKSGTASVVCLLNNFYPREAKVQWKVDNALQSGNSQESVTEQDSKDSTYSLSSTLTLSKADYEKHKVYACEVTHQGLSSPVTKSFNRGEC
As for B13, the EC50 with EGFR ECD was 0.19 nM; in the test with EGFR (cell surface), 0.14 nM.
